Measurements from patent US20220089743A1 (Chugai, published 2022).
Where a chain is given by its changes, count along the chain named. Each block holds one binder with its values, some of them ahead of it.

Legend:
Assay in all cases: cell-based or functional assay
[1] = molecular target: HLA-DQ2.2 on HBBB2.2 cells loaded with 33 mer gliadin peptide (human; wheat)
[2] = molecular target: HLA-DQ2.5 on IHW09023 cells loaded with gamma 1 gliadin peptide (human; wheat)
[3] = molecular target: HLA-DQ2.5 on IHW09023 cells loaded with omega1/2 gliadin peptide (human; wheat)
[4] = molecular target: HLA-DQ2.5 on IHW09023 cells loaded with BC hordein peptide (human; barley)
[5] = molecular target: HLA-DQ2.5 on IHW09023 cells loaded with gamma 4d gliadin peptide (human; wheat)
[6] = molecular target: HLA-DQ2.5 on IHW09023 cells loaded with gamma 2 gliadin peptide (human; wheat)
[7] = molecular target: HLA-DQ2.5 on IHW09023 cells loaded with 33 mer gliadin peptide (human; wheat)
[8] = molecular target: HLA-DQ2.5 on IHW09023 cells loaded with gamma 3 gliadin peptide (human; wheat)
[9] = molecular target: HLA-DQ2.5 on IHW09023 cells loaded with gamma 4a gliadin peptide (human; wheat)

IC50, HLA-DQ2.2, α1a gliadin TCR, 25 µM 33mer gliadin [1]: 1.16 ng/mL
IC50, HLA-DQ2.2, α2 gliadin TCR, 1 µM 33mer gliadin [1]: 6.51 ng/mL
IC50, γ1 gliadin TCR, 250 nM γ1 gliadin [2]: 1.9 ng/mL
IC50, ω1 gliadin TCR, 25 µM ω1/2 gliadin [3]: 1.96 ng/mL
IC50, ω2 gliadin TCR, 250 nM ω1/2 gliadin [3]: 0.2 ng/mL
IC50, BC hordein TCR, 250 nM BC hordein [4]: 11.4 ng/mL
IC50, γ4d gliadin TCR, 100 µM γ4d gliadin [5]: 9.23 ng/mL
IC50, γ2 gliadin TCR, 250 nM γ2 gliadin [6]: 785 ng/mL
IC50, α1a gliadin TCR, 250 nM 33mer gliadin [7]: 0.6 ng/mL
IC50, α1b gliadin TCR, 250 nM 33mer gliadin [7]: 1.81 ng/mL
IC50, α2 gliadin TCR, 250 nM 33mer gliadin [7]: 0.33 ng/mL
IC50, γ3 gliadin TCR, 100 µM γ3 gliadin [8]: 1.21 ng/mL
IC50, γ4a gliadin TCR, 25 µM γ4a gliadin [9]: 1250 ng/mL
B1: DQN0344H1013/L0620//DQN0385H1521/L0605-F6.v2 (bispecific antibody, V domains shown)
VH 1: QVQLVESGGGVVQPGRSLRLSCAASGFTFSSAYWMVWVRQAPGQGLEWMGAVYGGSDTTYYAKWTEGRFTISRDTSKNTLYLQMNSLRAEDTAVYYCAREPLNYYYYGELNVWGQGTLVTVSS
VL 1: DIQMTQSPSSLSASVGDRVTITCQATENIYSGLAWYQQKPGKAPKLLIYYVSTLAYGIPARFSGSGSGTDFTLTISSLEPEDFAVYYCQTYEDVSAVTFGQGTKVEIK
VH 2: QVQLVESGGGVVQPGRSLRLSCAASGFTFESWYFMSWVRQAPGKGLEWVASIDTGSGSIDYAEWVEGRFTISRDNSKNTLYLQMNSLRAEDTAVYYCARDIGIDYNFWGPGTLVTVSS
VL 2: DIQMTQSPSSLSASVGDRVTITCQTTQSISSYLNWYQQKPGQPPKLLIYYASTKAEGIPARFSGSGSGTDFTLTISSLEPEDFAVYYCHYGISKVSFGQGTKVEIK

IC50, HLA-DQ2.2, α1a gliadin TCR, 25 µM 33mer gliadin [1]: 1.62 ng/mL
IC50, HLA-DQ2.2, α2 gliadin TCR, 1 µM 33mer gliadin [1]: 4.6 ng/mL
IC50, γ1 gliadin TCR, 250 nM γ1 gliadin [2]: 5.85 ng/mL
IC50, ω1 gliadin TCR, 25 µM ω1/2 gliadin [3]: 3.19 ng/mL
IC50, ω2 gliadin TCR, 250 nM ω1/2 gliadin [3]: 0.49 ng/mL
IC50, BC hordein TCR, 250 nM BC hordein [4]: 25.2 ng/mL
IC50, γ4d gliadin TCR, 100 µM γ4d gliadin [5]: 27.8 ng/mL
IC50, γ2 gliadin TCR, 250 nM γ2 gliadin [6]: 280 ng/mL
IC50, α1a gliadin TCR, 250 nM 33mer gliadin [7]: 0.63 ng/mL
IC50, α1b gliadin TCR, 250 nM 33mer gliadin [7]: 1.42 ng/mL
IC50, α2 gliadin TCR, 250 nM 33mer gliadin [7]: 0.53 ng/mL
IC50, γ3 gliadin TCR, 100 µM γ3 gliadin [8]: 4.84 ng/mL
IC50, γ4a gliadin TCR, 25 µM γ4a gliadin [9]: 1980 ng/mL
B2: DQN0344H1013/L0620//DQN0385H1270/L0681-F6.v2 (bispecific antibody, V domains shown)
VH 1: B1 VH 1
VL 1: B1 VL 1
VH 2: B1 VH 2 with E30S, S31E
VL 2: B1 VL 2 with S67L
